In the supplement of paper PMC9942255:
Values joined by “and” are separate entries in the source; they are usually repeats but may differ in a detail not shown here. Identical values can stand only once.

system: Bacillus subtilis DB104 (SP-AmyQ fusion secretion); assay: AmyQ secretion efficiency, weighted average sort bin (1 = best secretion, 10 = worst) (bin number (weighted average, 1-10)); higher = lower secretion efficiency
Summary of the method: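 Designed signal peptides were fused to mature AmyQ and expressed from the amyE locus in B. subtilis DB104, and this library was loaded at about 0.3 cells per ~65 nL alginate bead together with fluorescein-starch. After about 13 h of growth at room temperature and nile red staining, occupied beads were split into 10 equally populated bins by green/red fluorescence ratio using large-particle flow cytometry. Amplicons from every bin were Illumina-sequenced. The secretion score is the average bin number weighted by read frequency and normalised to beads per bin, excluding low-abundance sequences.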

| Sequence | AmyQ secretion efficiency |
| --- | --- |
| MLTKRTTTSLLTIYIMLLGLIAWFPGAAQAEEK | 3.1 |
| MRKSLITLGLASFTILVIGTSSFLIPFTSKTASAETL | 1.81 |
| MRMLWRSLALCGLALTLAFLSVSLFFVPCAQAAEP | 1.41 |
| MPYLKRVLLLLVTGLFMSLFAVTATVSAQTG | 1.43 |
| MKKKLAAGLTASAVTPAEAATI | 6.26 |
| MGMKKKLSLGVASAALGLALVGGGTWKAFN | 5.21 |
| MKKKLAAGLTASAIVGTTLVVTPLEAATI | 3.17 |
| MLKKIALTLCPAIVGSLLFFTAPASFHVS | 7.41 |
| MRNLTKTSLLLAGLCTAAQMVFVTHSSAEES | 4.02 |
| MTSGTFIIWTIILGALLVCCIAVAYTLTKSQAGASSS | 4.88 |
| MKWMCSICCAAVLLAGGALQAEAV | 2.66 |
| MKIRKIKKSSALSFGMLISAVPALAAGT | 4.2 |
| MLKKIALTLCPAIVGSLLFFTAPAPVAVASFAAAASAHVS | 5.09 |
| MKRKQYSGRKLSIIVAYPIQTNASPM | 6.49 |
| MTKKAWFLPLVCVLLISGWLAASAQTT | 6.17 |
| MFNRLFRVCFLAALIMAFTLPNSVYDQKP | 6.94 |
| MKKLALTAAAGLGLTALHSAPAAKAAPL | 3.02 |
| MGRIKTKITILLVLLLLLAGPYMYIN | 7.19 |
| MKNMSCKLVVSVTLFFSFLGGGPLAHAQNS | 1.53 |
| MKLSVKIAGVLTVAAAAMIAIATTAKMYATAKGN | 5.63 |
| MKLSVKIAGVLTVAAAAMTAKMYATKKGN | 8.52 |
| MKKKLAAGLTASAIVGTTLVVTPAECATI | 4.47 |
| MKWMCSICCAAVLLAGGATQAEAV | 2.86 |
| MRSYIKVKKMCFLGLILFVPTALADNS | 3.9 |
| MFKKHTISLLIIFLLASAVLAKPIEGHTV | 3.78 |
| MLKKIALTLCPAIVGSLLFFTAPPFSASAHVS | 4.02 |

| Sequence | AmyQ secretion efficiency |
| --- | --- |
| MRPVFPLILSAVLFLSCFFGARQTEASLSKR | 3.68 |
| MKKWMITIAMLILAGIALFVFISPTSSSTTFLKSHKT | 7.57 |
| MQRRQRYRQRVIVIAALITFNVRNASPG | 8.93 |
| MPIKKKVMMCLAVTLVFGSMSFPTLTNWGGFKE | 7.59 |
| MKRIRIPMTLALGAALTIAPLSFNSAEEN | 7.4 |
| MKKRLIGFLVLVPALIMSGITLYEANKK | 5.95 |
| MKKRMMMIMFFGPIILAFILFAGAIAIPS | 7.34 |
| MTGSSVITCVMAASLTLGSLLPAGYATAKED | 4.28 |
| MRKKCSKCKWSTTSLLSCLSGKSAYAATS | 7.94 |
| MTKRGIQAFAGGIILATAVLAAVFYLTDEDQAAAV | 5.97 and 6.45 |
| MKKRLIAPMLLSAASLAFFAMSGSAQNAAY | 8.43 |
| MKSKGSIMACLILFSFTITTFINTETASAFSN | 4.22 |
| MKKWIYIMSFMIVVLVLSIAGIGGFSVHAASS | 4 |
| MKKKLAAGLTASAIVGTTLVVTPAEYATI | 6.06 |
| MRMLWRMLALCLLALLLAPCAQAAEP | 1.73 |
| MFKKHTISLLIIFLLASAVLAKPAEAHTV | 2.44 |
| MRSYIKVRRRCRRRLILFVPTALADNS | 6.04 |
| MKWMCSICCAAVLLAGGAAQARRK | 6.49 |
| MNIKKFAKQATVLTFTTALLAGGATQAFAATE | 1.07 |
| MFNRLFRVCFLAALIMAFFLGNSVYAQKP | 2.37 |
| MTMLRKIIGWILLLCIIPLFAFTVITSGKEV | 6.41 |
| MKKTIMSFKRKKKKSTTAFGAHASAKEI | 6.45 |
| MKSCKQLIVCSLAAILLLIPSVAFAADS | 2.83 |
| MRPVFPLILSAVLFLSCFFGARQTEASASPF | 2.82 |
| MSTMIVRMTLPLLIVCLAFSSFSASARAASE | 2.3 |
| MAIIIAIIAAVIVIAALITFNVRNADDD | 7.51 |

| Sequence | AmyQ secretion efficiency |
| --- | --- |
| MKSCKQLIVCSLAAILLLRRKVSFAADS | 7.65 |
| MMIKQCKKCLSLLVFGTTAAHAEET | 7.22 |
| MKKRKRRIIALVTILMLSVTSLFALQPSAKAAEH | 2.06 |
| MFNRLFRVCFLAALIMTLPNSVYAQKP | 2.44 |
| MFKKHSTISLLIIFLLASAVLAKPIEAHTV | 1.86 |
| MRNLTKTSLLLAGLCTAAEEEEEDHASAEES | 6.56 |
| MRKKTKNRLISSVLSTVVISSLLFPGAAGARKK | 2.52 |
| MTMLRKIIGWILLLCIIPLFAFTVIASQKEV | 6.87 |
| MLKFLKSNFRFLLAAALGISLLASSNFIKASND | 3.52 |
| MLTKRLLTIYIMLLGLIAWFPGALQAEEK | 2.66 |
| MFGTLFRVCFLAALIMAFTLPNSVYAQKP | 2.52 |
| MRSKKLWISLLFALTLIFTMAFSNMSAQHAGK | 6.69 |
| MKSCKQLIVCSLAAILLLIPSVSFSADS | 4.65 |
| MKRIRIPMTLALGAALTIAPLSFASPEEN | 8.17 |
| MKKRLILLSAASLAFFAMSGSAQAAAY | 2.92 |
| MNKLKRLSMLKKKKASVFIFSSHALAAQY | 6.52 |
| MNKKKKVVSALSISALALSVSGVASAHEI | 3.7 |
| MKLAKRNFMISMVSALTPSTTLAITAKAKEL | 7.41 |
| MAIIIAIIAAVIVIAALITFNVHNASPG | 7.6 |
| MKKGIIRFLLVSFVLFFALFAFIAFGGGTTVQAAPA | 1.86 |
| MKKAFILSAAAAVGLFTFLILSFTGGVQQASAKEL | 3.78 |
| MKKKIRRKKKKSAVVGSSMAAAPAEAKTI | 7.24 |
| MFRLLVSLRVWMVFLMNWVTPDRKTAAAAVY | 7.07 |
| MKRKLLSSLAISALSLGLLVSAPTASFVAES | 6.45 |
| MLKKKWMVGLLAGCLAAGGFSYNSFATEN | 5.59 |
| MKLSVKIAGVLTVAAAAMTAKMYATPKGN | 5.67 |

| Sequence | AmyQ secretion efficiency |
| --- | --- |
| MIKAAAVLLSLGLVFGFSYGAGHVAEAKTK | 2.3 |
| MKKRLIAPMLLSAASLAFFAMSGSAQEAAY | 6.78 |
| MFKKLLLATSALTPLDGHAKAQEV | 5.8 |
| MKKRFSLIMMTGLLFGLTSPAFARKK | 7.01 |
| MKQFAITLSVLCALILLVPTLLVIPFQHNKAAGASV | 4.37 |
| MRKKRVITCVMAASLTLGSLLPAGYASFKED | 3.82 |
| MKRFLIGAGVAAVILDDEEEADHQTHSQEM | 7.2 |
| MNLRKILLSSALSLGMLVSAAPVLMTSS | 4.51 |
| MSTIWIGMLAAAVLLLMVPKVSLADAA | 6.21 |
| MLKKKWMVGLLAGCLAAGGFSYNAFPTEN | 5.71 |
| MGLGKKLSVAVAASFMSLSISLPGLQAAEG | 1.65 |
| MNKPTKLFSTLALAAGMTKRRAGGAGTIHAQQP | 5.85 |
| MNKLKRLSMLTVMIASVFIFSSHALAARR | 2.05 |
| MTGMLGSMLLITAGILVFFAVVVKDVFAAGL | 4.32 |
| MLCVMMLLFSAIASFPVSAQMKDQ | 6.09 |
| MKQKRKIIGWILLLCIIPLFAFTVIASGKEV | 6.81 |
| MKRLALGAALTIAPLSFASAEEN | 5.98 |
| MGMKKKLSLGVASAALGLALVGGGQWAAFN | 5.94 |
| MKSKGSIMSCLILFSFTITTFINTETISAFSN | 3.29 |
| MFKKHTKRKRRKFLLASAVLAKPIEAHTV | 7.89 |
| MKKKLAAGLTASAIVGTTLVIVTPAEAATI | 3.35 |
| MKKGIIRFLLVSFVLFFALSTGITGVQAAPK | 1.02 |
| MKRLFMKASLVLFAVVFVFKPAKAETH | 3.15 |
| MNKKYFVLIVCIIFTSALFPTFSSVTHAQG | 1.15 |
| MKKVLMAFIICLSLILSVLAAPPSGAKAASK | 1.85 |
| MKVLLSALLLLLFAFEPSDSGKKL | 6.13 |

| Sequence | AmyQ secretion efficiency |
| --- | --- |
| MTMLRKIIGWILLLCIIPLFAFTVIASFKEV | 6.97 |
| MKRNLTITMFILVLSFLSIIVAYPIQTNASPM | 5.49 |
| MSLNKRVSMFLVALTMCGGLFVTPAKAVKT | 2.92 |
| MKKRYMAFIICLSLILSVLAAPPSGAKAESV | 2 |
| MRSYIKSKKRCKQQLILFVPTALADNS | 7.44 |
| MNLRKILLSSALSLGMLVVSAAPVLATSS | 1.4 |
| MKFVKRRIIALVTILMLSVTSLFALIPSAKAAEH | 2.54 |
| MKKRRYFIVFICFFVLFSVHPIAAAAADS | 3.35 |
| MKKAAAVLLSLGLVFEDEDEAGHVAEAKTK | 5.2 |
| MLKRTSFVSSLFISSAVLLSILLIASTAHAQSA | 3.17 |
| MKSKGSIMACLILFSFTITTFINEISAFSN | 6.8 |
| MKKRLIGFLVLVPALIMSGITLIEANPY | 7.07 |
| MKNRKRKLVVSVTLFFSFLTIGPLAHAQNS | 1.21 |
| MGLGKKLSVAVAASFMSLSISLPGRQAAEG | 3.87 |
| MKKQIITATTAVVLGSTLFASPASAQSI | 1.55 |
| MLCVMMLLFSAIASFPVSFTFPAFATAQAKDQ | 7.71 |
| MKKSQYFRKRRCKRVLFSVHPIAAAAADS | 7.95 |
| MKRLLVSLRVWMVFLMNWVTPDRKTEAAAVY | 6.9 |
| MAIIIAIIAAVIVIAALITFNVRNQSPG | 9.31 |
| MRSKKTWISLLFALTLIFTMAFSNMSAQAAGK | 3.25 |
| MLLNLAAGLTASAIVGTTLVVTPAEAATI | 6.11 |
| MKKRLIAPMLLSAASLAFFAMSGSHQAAAY | 5.04 |
| MKLKKRVSMFLVALTMCGGLFVTPQAKAVKT | 3.89 |
